Biological target: T1, preassembled pyrene-actin filaments (Gallus gallus, UniProt P68139)
T1 construct: Mince 2 kg of fresh, boneless, skinless chicken breast in a pre-chilled meat grinder; from tissue; host or cells: chicken breast (skeletal) muscle, via acetone powder
Experiment: pyrene actin assay (decrease in fluorescence of filamentous pyrene-actin on addition of cofilin)
Type: biochemical, chicken
Details: addition of stoichiometric amounts of cofilin to preassembled pyrene-actin filaments; FIG. 3
Description: The effect of cofilin on preassembled pyrene-actin filaments is monitored. Two cofilin activities—binding to actin polymer and enhancing depolymerization—combine to reduce the relative fluorescence intensity. Addition of stoichiometric amounts of cofilin results in a 3-5 fold reduction in fluorescence intensity. In both these assays, any inhibitor will result in an increase in relative fluorescence intensity. For both graphs, the x-axes show cycle number (1 cycle/30 sec) and the y-axes reflect fluorescence in arbitrary units..
Assays for the interaction of A. fumigatus cofilin and any other cofilin with actin in 384-well plates using a fluorescence as the detection means have been developed. […]
Upon addition of cofilin to filamentous pyrene-actin, two well-characterized biochemical activities can be monitored. First, cofilin binds to the filaments and partially quenches the pyrene fluorescence. Second, it induces filament disassembly, further decreasing pyrene fluorescence. The decrease in fluorescence that results when cofilin is added to filamentous actin is monitored (FIG. 3). An inhibitor of the interaction of cofilin with pyrene-actin will result in an increase in fluorescence. […]
Thaw Actin, Pyrene-Actin and Cofilin pellets on ice or at room temp. […] Take readings at OD290. […]
Add 25 ul of sample into each well. […] Take Pyrene-Kinetic readings (Fluorostar setting) at 150 cycles, 360 to […].

B1: A. fumigatus cofilin: proteins or polypeptides present in A. fumigatus that are capable of binding actin; amino acid sequence SEQ ID NO:2; expressed in E. coli (protein, listed as Aspergillus fumigatus)
chain: MALASGVSIADECITAFNDFRMSGNKANKTKFIIFKIADNKKEVVIDEVSQEEDYEVFRSRLEATKDSKGNPAPRYAVYDVEYDLGGGEGKRSKIVFISWVPSDTPTLWSMIYASTRENLKNALNIHTSIHADDKGDIEWKTVLAEASGGKAGK
modifications: Cofilin sequence
notes: expressed in E. coli
With B1 the “reduction in fluorescence intensity” value was 3-5 fold.

From patent US20040138440A1, “Aspergillus fumigatus cofilin” (priority 2004, published 2004)
